B1: PR000265, anti-PD-L1 91G3H5H3(D54E), hIgG1(N297A) (antibody, V domains shown)
VH: EVQLVESGGGLVQPGGSLRLSCAASGFTFSSYWMSWVRQAPGKGLEWVANIKQEGSEKYYVDSVKGRFTISRDNAKNSLYLQMNSLRAEDTAVYYCARDRAVAGAFDIWGQGTMVTVSS
VL: DIQMTQSPSTLSASVGDRVTVTCRASQSIYIWLAWYQQKPGKAPNLLIYKASSLETGVPSRFSGSGSGTEFTLTISSLQPDDFATYYCQQYYGSSRTFGQGTKVEIKR
notes: Parent monoclonal antibody of the PD-L1 end
B2: PR003550 (bispecific antibody, human IgG1, kappa, L234A L235A)
light: DIQMTQSPSTLSASVGDRVTVTCRASQSIYIWLAWYQQKPGKAPNLLIYKASSLETGVPSRFSGSGSGTEFTLTISSLQPDDFATYYCQQYYGSSRTFGQGTKVEIKRTVAAPSVFIFPPSDEQLKSGTASVVCLLNNFYPREAKVQWKVDNALQSGNSQESVTEQDSKDSTYSLSSTLTLSKADYEKHKVYACEVTHQGLSSPVTKSFNRGEC
heavy: EVQLVESGGGLVQPGGSLRLSCAASGFTFSSYWMSWVRQAPGKGLEWVANIKQEGSEKYYVDSVKGRFTISRDNAKNSLYLQMNSLRAEDTAVYYCARDRAVAGAFDIWGQGTMVTVSSASTKGPSVFPLAPSSKSTSGGTAALGCLVKDYFPEPVTVSWNSGALTSGVHTFPAVLQSSGLYSLSSVVTVPSSSLGTQTYICNVNHKPSNTKVDKKVEPKSCDKTHTCPPCPAPEAAGGPSVFLFPPKPKDTLMISRTPEVTCVVVDVSHEDPEVKFNWYVDGVEVHNAKTKPREEQYNSTYRVVSVLTVLHQDWLNGKEYKCKVSNKALGAPIEKTISKAKGQPREPQVYTLPPSREEMTKNQVSLTCLVKGFYPSDIAVEWESNGQPENNYKTTPPVLDSDGSFFLYSKLTVDKSRWQQGNVFSCSVMHEALHNHYTQKSLSLSPGEPKSSDKTHTPPPPPRTEVQLVESGGGVVQPGGSLRLSCAASGFTFSNYAMTWVRQAPEKGLEWVSSISGSGVSTYYADSVKGRFTISRDNSKNTLYLQMTRLTAEDTAVYFCAKEGSSETDDHYYNVDVWGQGTTVTVSS
notes: Structure 1, IgG-VH tetravalent symmetric; PD-L1 Fab from PR000265, 4-1BB VH from PR001760; linker H1_15-RT; human IgG1 (AAG); also called PD-L1×4-1BB bispecific antibody molecule
B3: PR007163 (bispecific antibody, human IgG1)
light: B2 light
heavy: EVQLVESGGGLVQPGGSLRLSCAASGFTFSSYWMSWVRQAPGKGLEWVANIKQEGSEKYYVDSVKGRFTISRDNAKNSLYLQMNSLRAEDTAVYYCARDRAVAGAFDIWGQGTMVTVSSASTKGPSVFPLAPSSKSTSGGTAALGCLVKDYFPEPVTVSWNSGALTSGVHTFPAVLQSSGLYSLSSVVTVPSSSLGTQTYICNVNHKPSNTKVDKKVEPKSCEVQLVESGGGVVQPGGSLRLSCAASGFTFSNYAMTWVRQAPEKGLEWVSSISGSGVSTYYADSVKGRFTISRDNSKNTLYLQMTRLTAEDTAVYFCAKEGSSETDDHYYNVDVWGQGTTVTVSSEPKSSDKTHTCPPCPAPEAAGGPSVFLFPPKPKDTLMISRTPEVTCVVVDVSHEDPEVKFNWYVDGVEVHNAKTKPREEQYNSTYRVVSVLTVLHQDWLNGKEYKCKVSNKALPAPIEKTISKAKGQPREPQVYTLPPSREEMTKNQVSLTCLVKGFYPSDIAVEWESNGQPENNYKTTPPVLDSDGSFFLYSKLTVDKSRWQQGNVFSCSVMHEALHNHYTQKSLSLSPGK
notes: Structure 4, Fab(CH1)-VH-Fc (Fab-HCAb); PD-L1 Fab from PR000265, 4-1BB VH from PR001760; no first linker, second linker human IgG1 hinge (C220S); human IgG1 (LALA); also called PD-L1×4-1BB bispecific antibody molecule, structure (4)
B4: PR004270 (bispecific antibody, human IgG1)
chain 1: EVQLVESGGGLVQPGGSLRLSCAASGFTFSSYWMSWVRQAPGKGLEWVANIKQEGSEKYYVDSVKGRFTISRDNAKNSLYLQMNSLRAEDTAVYYCARDRAVAGAFDIWGQGTMVTVSSASTKGPSVFPLAPSSKSTSGGTAALGCLVKDYFPEPVTVSWNSGALTSGVHTFPAVLQSSGLYSLSSVVTVPSSSLGTQTYICNVNHKPSNTKVDKKVEPKSC
chain 2: not shown
notes: Structure 3, Fab(CL)-VH-Fc (Fab-HCAb) tetravalent symmetric; PD-L1 Fab from PR000265, 4-1BB VH from PR001760; L1 H1_15, L2 human IgG1 hinge (C220S); human IgG1 (LALA); also called PD-L1×4-1BB bispecific antibody molecule with the Fab-HCAb symmetric structure
B5: PR007164 (bispecific antibody, human IgG1)
chain 1: B4 chain 1
chain 2: not shown
notes: Structure 3, Fab(CL)-VH-Fc (Fab-HCAb); PD-L1 Fab from PR000265, 4-1BB VH from PR001760; no first linker, second linker human IgG1 hinge (C220S); human IgG1 (LALA); also called PD-L1×4-1BB bispecific antibody molecule, structure (3)
B6: PR001760, anti-4-1BB heavy-chain antibody 1016P0011G10 (antibody, human IgG1, V domains shown)
VH: EVQLVESGGGVVQPGGSLRLSCAASGFTFSNYAMTWVRQAPEKGLEWVSSISGSGVSTYYADSVKGRFTISRDNSKNTLYLQMTRLTAEDTAVYFCAKEGSSETDDHYYNVDVWGQGTTVTVSS
notes: Fully human heavy-chain antibody (HCAb), heavy chain dimer without light chains; also called anti-4-1BB HCAb antibody
B7: PR003562 (bispecific antibody, human IgG1, kappa, L234A L235A)
light: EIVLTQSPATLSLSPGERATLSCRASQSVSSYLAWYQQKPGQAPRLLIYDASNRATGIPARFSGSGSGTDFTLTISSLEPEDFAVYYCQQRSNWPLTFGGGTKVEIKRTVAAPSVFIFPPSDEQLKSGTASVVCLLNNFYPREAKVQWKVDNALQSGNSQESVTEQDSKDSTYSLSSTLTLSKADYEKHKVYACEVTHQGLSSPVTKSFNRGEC
heavy: EVQLLESGGGLVQPGGSLRLSCAASGFTFSSFVMSWVRQAPGKGLEWVSTISGSGRSTYYADSVKGRFTISRDNSKNTLHLQMNSLRAEDTAVYYCAKDAAAAGTKFDYWGQGTLVTVSSASTKGPSVFPLAPSSKSTSGGTAALGCLVKDYFPEPVTVSWNSGALTSGVHTFPAVLQSSGLYSLSSVVTVPSSSLGTQTYICNVNHKPSNTKVDKKVEPKSCDKTHTCPPCPAPEAAGGPSVFLFPPKPKDTLMISRTPEVTCVVVDVSHEDPEVKFNWYVDGVEVHNAKTKPREEQYNSTYRVVSVLTVLHQDWLNGKEYKCKVSNKALGAPIEKTISKAKGQPREPQVYTLPPSREEMTKNQVSLTCLVKGFYPSDIAVEWESNGQPENNYKTTPPVLDSDGSFFLYSKLTVDKSRWQQGNVFSCSVMHEALHNHYTQKSLSLSPGEPKSSDKTHTPPPPPRTEVQLLESGGGLVQLGGSLRLSCAASGFTFSRYAMTWVRQAPEKGLEWVSSISGSGDDTYYGDSVKGRFTISRDNSQNTVYLQMNSLRAEDTAVYFCAKEKAGTTGDYYYNVDVWGQGTTVTVSS
notes: Structure 1, IgG-VH; CLDN18.2 Fab from PR002726, 4-1BB VH from PR001758; linker H1_15-RT; human IgG1 (AAG); also called CLDN18.2×4-1BB bispecific antibody molecule
B8: PR003563 (bispecific antibody, human IgG1, kappa, L234A L235A)
light: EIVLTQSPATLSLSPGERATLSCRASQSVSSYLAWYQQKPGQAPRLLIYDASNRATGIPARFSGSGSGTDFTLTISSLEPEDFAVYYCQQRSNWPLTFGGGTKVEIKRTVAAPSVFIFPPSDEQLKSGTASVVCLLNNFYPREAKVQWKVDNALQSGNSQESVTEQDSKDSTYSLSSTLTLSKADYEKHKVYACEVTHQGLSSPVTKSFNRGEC
heavy: EVQLLESGGGLVQPGGSLRLSCAASGFTFSSFVMSWVRQAPGKGLEWVSTISGSGRSTYYADSVKGRFTISRDNSKNTLHLQMNSLRAEDTAVYYCAKDAAAAGTKFDYWGQGTLVTVSSASTKGPSVFPLAPSSKSTSGGTAALGCLVKDYFPEPVTVSWNSGALTSGVHTFPAVLQSSGLYSLSSVVTVPSSSLGTQTYICNVNHKPSNTKVDKKVEPKSCDKTHTCPPCPAPEAAGGPSVFLFPPKPKDTLMISRTPEVTCVVVDVSHEDPEVKFNWYVDGVEVHNAKTKPREEQYNSTYRVVSVLTVLHQDWLNGKEYKCKVSNKALGAPIEKTISKAKGQPREPQVYTLPPSREEMTKNQVSLTCLVKGFYPSDIAVEWESNGQPENNYKTTPPVLDSDGSFFLYSKLTVDKSRWQQGNVFSCSVMHEALHNHYTQKSLSLSPGEPKSSDKTHTPPPPPRTEVQLVESGGGVVQPGGSLRLSCAASGFTFSNYAMTWVRQAPEKGLEWVSSISGSGVSTYYADSVKGRFTISRDNSKNTLYLQMTRLTAEDTAVYFCAKEGSSETDDHYYNVDVWGQGTTVTVSS
notes: Structure 1, IgG-VH; CLDN18.2 Fab from PR002726, 4-1BB VH from PR001760; linker H1_15-RT; human IgG1 (AAG); also called CLDN18.2×4-1BB bispecific antibody molecule
B9: PR003564 (bispecific antibody, human IgG1, kappa, L234A L235A)
light: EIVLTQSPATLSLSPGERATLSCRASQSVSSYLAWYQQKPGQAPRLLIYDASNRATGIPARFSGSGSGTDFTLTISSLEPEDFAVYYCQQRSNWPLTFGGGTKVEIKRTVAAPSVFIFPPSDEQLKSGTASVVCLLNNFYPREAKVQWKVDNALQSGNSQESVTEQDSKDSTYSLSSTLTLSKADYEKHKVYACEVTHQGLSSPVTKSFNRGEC
heavy: EVQLLESGGGLVQPGGSLRLSCAASGFTFSSFVMSWVRQAPGKGLEWVSTISGSGRSTYYADSVKGRFTISRDNSKNTLHLQMNSLRAEDTAVYYCAKDAAAAGTKFDYWGQGTLVTVSSASTKGPSVFPLAPSSKSTSGGTAALGCLVKDYFPEPVTVSWNSGALTSGVHTFPAVLQSSGLYSLSSVVTVPSSSLGTQTYICNVNHKPSNTKVDKKVEPKSCDKTHTCPPCPAPEAAGGPSVFLFPPKPKDTLMISRTPEVTCVVVDVSHEDPEVKFNWYVDGVEVHNAKTKPREEQYNSTYRVVSVLTVLHQDWLNGKEYKCKVSNKALGAPIEKTISKAKGQPREPQVYTLPPSREEMTKNQVSLTCLVKGFYPSDIAVEWESNGQPENNYKTTPPVLDSDGSFFLYSKLTVDKSRWQQGNVFSCSVMHEALHNHYTQKSLSLSPGEPKSSDKTHTPPPPPRTEVQLLESGGGLVQPGGSLRLSCAASGFIFSNFAMTWVRQPPEKGLKWVSSINGSGFNTYYTDSVKGRFTISRDNSRNTLYLQMNRLTAEDTAVYFCAKEGSSETDDHYYNVDVWGQGTTVTVSS
notes: Structure 1, IgG-VH; CLDN18.2 Fab from PR002726, 4-1BB VH from PR001836; linker H1_15-RT; human IgG1 (AAG); also called CLDN18.2×4-1BB bispecific antibody molecule

biological target: T1, human PD-L1 (human, UniProt Q9NZQ7 19-290); assay: flow cytometry, CHO-K1/hPD-L1 cells
T1 construct: whole, on cells; Expressed on CHO-K1/hPD-L1 cells (GenScript, M00543); also called CD274; B7-H1
T1 sequence (Q9NZQ7 19-290): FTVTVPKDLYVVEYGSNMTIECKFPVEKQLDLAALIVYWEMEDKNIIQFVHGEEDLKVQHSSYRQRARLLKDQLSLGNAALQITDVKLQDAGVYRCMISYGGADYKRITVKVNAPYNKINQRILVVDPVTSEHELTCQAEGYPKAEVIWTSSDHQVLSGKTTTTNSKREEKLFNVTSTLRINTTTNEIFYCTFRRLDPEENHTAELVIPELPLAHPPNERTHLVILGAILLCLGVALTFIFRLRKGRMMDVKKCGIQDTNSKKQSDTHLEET

Row | binding result | Binder
1 | binds | B1
2 | binds | B2
3 | binds | B3
4 | binds | B4
5 | binds | B5

biological target: T2, human 4-1BB (human, UniProt Q07011 24-255); assay: flow cytometry, CHO-K1/hu 4-1BB cells
T2 construct: whole, on cells; Expressed on CHO-K1/hu 4-1BB cells (GenScript, M00538); also called CD137; TNFRSF9
T2 sequence (Q07011 24-255): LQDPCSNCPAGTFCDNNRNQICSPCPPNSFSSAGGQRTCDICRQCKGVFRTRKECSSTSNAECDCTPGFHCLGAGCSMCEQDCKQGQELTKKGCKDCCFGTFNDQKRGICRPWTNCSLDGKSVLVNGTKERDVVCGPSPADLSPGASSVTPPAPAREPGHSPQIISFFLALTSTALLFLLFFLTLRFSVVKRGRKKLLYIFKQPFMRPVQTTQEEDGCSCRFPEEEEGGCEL
Description: The binding ability of the binding protein to a CHO-K1 cell line CHO-K1/hu 4-1BB (GenScript, M00538) highly expressing human 4-1BB and a CHO-K1 cell line CHO-K1/cyno 4-1BB (GenScript, M00569) highly expressing cynomolgus monkey 4-1BB were determined by flow cytometry FACS. Specifically, the cells were digested and resuspended in a complete medium, and the cell density was adjusted to 2×10⁶ cells/mL. […] The cells were incubated at 4° C. for 1 h away from light. Then, the cells in each well were rinsed twice with 100 μL of pre-cooled FACS buffer (PBS buffer containing 0.5% BSA) and centrifuged at 500 g at 4° C. for 5 min, and then the supernatant was discarded. […] Then, the cells in each well were then rinsed twice with 200 μL of pre-cooled FACS buffer and centrifuged at 500 g at 4° C. for 5 min, and then the supernatant was discarded. Finally, a pre-cooled FACS buffer was added at 200 μL/well to resuspend the cells. Fluorescence signal values were read using a BD FACS CANTOII flow cytometer or an ACEA NovoCyte flow cytometer, and the data were processed and analyzed using FlowJo v10 (FlowJo, LLC) software.

Row | binding result | Binder
6 | binds | B6
7 | binds | B7
8 | binds | B8
9 | binds | B9
